B1: Full-length FLAG-epitope-tagged human ERα (receptor, UniProt P03372 1-595, looked up)
chain: MTMTLHTKASGMALLHQIQGNELEPLNRPQLKIPLERPLGEVYLDSSKPAVYNYPEGAAYEFNAAAAANAQVYGQTGLPYGPGSEAAAFGSNGLGGFPPLNSVSPSPLMLLHPPPQLSPFLQPHGQQVPYYLENEPSGYTVREAGPPAFYRPNSDNRRQGGRERLASTNDKGSMAMESAKETRYCAVCNDYASGYHYGVWSCEGCKAFFKRSIQGHNDYMCPATNQCTIDKNRRKSCQACRLRKCYEVGMMKGGIRKDRRGGRMLKHKRQRDDGEGRGEVGSAGDMRAANLWPSPLMIKRSKKNSLALSLTADQMVSALLDAEPPILYSEYDPTRPFSEASMMGLLTNLADRELVHMINWAKRVPGFVDLTLHDQVHLLECAWLEILMIGLVWRSMEHPGKLLFAPNLLLDRNQGKCVEGMVEIFDMLLATSSRFRMMNLQGEEFVCLKSIILLNSGVYTFLSSTLKSLEEKDHIHRVLDKITDTLIHLMAKAGLTLQQQHQRLAQLLLILSHIRHMSNKGMEHLYSMKCKNVVPLYDLLLEMLDAHRLHAPTSRGGASVEETDQSHLATAGSTSSHSLQKYYITGEAEGFPATV

Assay [1] addresses Full-length FLAG-epitope-tagged human SRC1a (human, UniProt Q15788-1 1-1441). Kind of assay: fluorescence polarisation.
Assay [2] addresses B1. Kind of assay: fluorescence polarisation. In general terms: In fluorescence polarisation assays a small probe gives low polarisation when free and higher when bound to something large.

Sequence of Full-length FLAG-epitope-tagged human SRC1a (Q15788 whole entry): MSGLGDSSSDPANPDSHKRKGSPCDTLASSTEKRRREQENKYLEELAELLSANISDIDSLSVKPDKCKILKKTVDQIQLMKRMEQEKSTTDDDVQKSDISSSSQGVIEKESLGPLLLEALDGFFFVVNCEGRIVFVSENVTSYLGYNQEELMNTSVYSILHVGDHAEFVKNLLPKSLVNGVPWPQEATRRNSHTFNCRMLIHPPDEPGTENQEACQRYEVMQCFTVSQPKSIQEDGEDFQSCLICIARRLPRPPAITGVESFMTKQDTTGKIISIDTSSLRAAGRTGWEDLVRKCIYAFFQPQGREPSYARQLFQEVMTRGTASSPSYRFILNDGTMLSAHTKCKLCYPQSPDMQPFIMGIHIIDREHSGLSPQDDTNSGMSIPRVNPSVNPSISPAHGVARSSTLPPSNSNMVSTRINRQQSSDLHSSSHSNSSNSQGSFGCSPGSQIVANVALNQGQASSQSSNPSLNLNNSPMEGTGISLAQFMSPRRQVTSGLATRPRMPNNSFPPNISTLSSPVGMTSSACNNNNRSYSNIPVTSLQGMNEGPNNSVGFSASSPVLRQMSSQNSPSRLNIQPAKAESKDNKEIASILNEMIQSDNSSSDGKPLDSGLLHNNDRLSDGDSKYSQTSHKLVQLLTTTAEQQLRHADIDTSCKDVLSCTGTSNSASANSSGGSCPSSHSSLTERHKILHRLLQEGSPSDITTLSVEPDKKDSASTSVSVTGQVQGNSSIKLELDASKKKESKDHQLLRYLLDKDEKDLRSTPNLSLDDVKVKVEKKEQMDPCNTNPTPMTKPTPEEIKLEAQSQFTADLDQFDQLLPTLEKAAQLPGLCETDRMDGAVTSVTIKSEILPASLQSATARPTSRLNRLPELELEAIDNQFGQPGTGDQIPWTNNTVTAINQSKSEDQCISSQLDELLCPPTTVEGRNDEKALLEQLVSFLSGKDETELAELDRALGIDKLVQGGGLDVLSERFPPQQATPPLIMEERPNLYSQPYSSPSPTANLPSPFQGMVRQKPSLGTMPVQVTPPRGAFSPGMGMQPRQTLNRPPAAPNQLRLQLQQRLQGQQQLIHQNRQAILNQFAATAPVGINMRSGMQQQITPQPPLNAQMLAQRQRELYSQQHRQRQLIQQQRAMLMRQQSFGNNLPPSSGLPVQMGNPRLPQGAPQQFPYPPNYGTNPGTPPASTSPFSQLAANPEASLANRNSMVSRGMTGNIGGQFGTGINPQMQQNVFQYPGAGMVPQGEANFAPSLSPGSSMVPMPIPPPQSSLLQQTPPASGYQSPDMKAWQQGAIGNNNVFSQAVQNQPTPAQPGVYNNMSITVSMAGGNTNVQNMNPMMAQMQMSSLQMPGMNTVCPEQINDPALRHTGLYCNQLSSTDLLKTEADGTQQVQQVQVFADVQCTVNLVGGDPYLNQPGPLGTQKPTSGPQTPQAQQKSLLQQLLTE

One may read the Kd as the concentration at which binding is half-saturated. Read a high Kd as weaker binding. With B1, the Kd in assay [1] is ~14 nM.

B2: FLAG-epitope-tagged human ERβ (receptor, UniProt Q92731 1-530, looked up)
chain: MDIKNSPSSLNSPSSYNCSQSILPLEHGSIYIPSSYVDSHHEYPAMTFYSPAVMNYSIPSNVTNLEGGPGRQTTSPNVLWPTPGHLSPLVVHRQLSHLYAEPQKSPWCEARSLEHTLPVNRETLKRKVSGNRCASPVTGPGSKRDAHFCAVCSDYASGYHYGVWSCEGCKAFFKRSIQGHNDYICPATNQCTIDKNRRKSCQACRLRKCYEVGMVKCGSRRERCGYRLVRRQRSADEQLHCAGKAKRSGGHAPRVRELLLDALSPEQLVLTLLEAEPPHVLISRPSAPFTEASMMMSLTKLADKELVHMISWAKKIPGFVELSLFDQVRLLESCWMEVLMMGLMWRSIDHPGKLIFAPDLVLDRDEGKCVEGILEIFDMLLATTSRFRELKLQHKEYLCVKAMILLNSSMYPLVTATQDADSSRKLAHLLNAVTDALVWVIAKSGISSQQQSMRLANLLMLLSHVRHASNKGMEHLLNMKCKNVVPVYDLLLEMLNAHVLRGCKSSITGSECSPAEDSKSKEGSQNPQSQ
With B2, the Kd in assay [1] is ~6 nM. A word on the IC50: it is the concentration that inhibits the measured activity by half. A high value points to a need for much substance. As for QAQQKSLLQQLLTE [SRC1 NR Box 4 peptide], the IC50 in assay [2] was ~3800 nM. With LTERHKILHRLLQE [SRC1 NR Box 2 peptide], in assay [2], the concentration for half-maximal inhibition (IC50) was ~1000 nM.
